Measured values as given in paper doi:10.1101/2022.11.25.517900 (bioRxiv, 2022).

Biological target: the molecule itself
Assay: cryo-EM structure

B1: Vibrio alginolyticus PomB, full length, non-cleaved (without protease site insertion) (natural protein, UniProt O06874 1-315, looked up)
chain: MDDEDNKCDCPPPGLPLWMGTFADLMSLLMCFFVLLLSFSEMDVLKFKQIAGSMKFAFGVQNQLEVKDIPKGTSIIAQEFRPGRPEPTPIDVIMQQTMDITQQTLEFHEGESDRAGGTKRDEGKLTGGQSPATSTQNNESAEADMQQQQSKEMSQEMETLMESIKKALEREIEQGAIEVENLGQQIVIRMREKGAFPEGSAFLQPKFRPLVRQIAELVKDVPGIVRVSGHTDNRPLDSELYRSNWDLSSQRAVSVAQEMEKVRGFSHQRLRVRGMADTEPLLPNDSDDNRALNRRVEISIMQGEPLYSEEVPVIQ
binding result: binds
